According to patent publication US20260139049A1 (PEDIATRIC IMMUNITY AND HEALTHCARE GUANGZHOU BIOTECHNOLOGY, published 2026):

T1: human CLDN6 (human, UniProt P56747 1-220)
T1 construct: whole, on cells; four-transmembrane protein; also called claudin-6; HEK293T-CLDN6
T1 sequence (looked up): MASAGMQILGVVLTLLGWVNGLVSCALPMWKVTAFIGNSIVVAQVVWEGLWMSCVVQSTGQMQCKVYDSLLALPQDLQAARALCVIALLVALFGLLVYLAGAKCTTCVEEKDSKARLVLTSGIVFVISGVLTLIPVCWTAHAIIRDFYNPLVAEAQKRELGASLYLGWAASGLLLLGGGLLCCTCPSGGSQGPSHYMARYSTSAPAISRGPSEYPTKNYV


Assays:
[1] = molecular target: T1, human CLDN6; test: FACS on CHO-K1-CLDN6 cells, against PiH1004 (FIG. 40)
[2] = molecular target: T1, human CLDN6; test: FACS on HEK293T-CLDN6 cells
Experimental: To detect a binding capacity of a chimeric or humanized antibody to CLDN6, a CLDN6-expressing cell line HEK293T-CLDN6 and a CLDN6-negative control cell line HEK293T were washed three times with PBS. 1×10⁵ test cells and 50 μL of an antibody solution to be tested were added to a 96-well plate, and incubated at 4° C. for 1 h. The cells were then washed three times with PBS. […] Finally, cells were washed three times with PBS, and signals were read using FACS.
An EC50 value (a concentration of an antibody that binds to half of binding sites at equilibrium) is calculated through nonlinear regression.

[3] = molecular target: T1, human CLDN6; test: FACS on PA-1 tumour cells; target on the cells taken as CLDN6
Experimental: (§1) 50 μL of an antibody to be tested was added to a 96-well plate, then 1×10⁵ cells were added to each well, and incubation was conducted at 4° C. for 1 h. Cells were washed three times with PBS. […] Finally, cells were washed three times with PBS, and signals were read using FACS. A binding capacity of the antibody to each tumor cell was analyzed based on detection data.

[4] = molecular target: T1, human CLDN6; test: FACS on HepG2 tumour cells; target on the cells taken as CLDN6
Experimental: as §1

| binding result [1] | EC50 [2] [µg/mL] | EC50 [3] [µg/mL] | EC50 [4] [µg/mL] | Binder |
| --- | --- | --- | --- | --- |
| binds |  |  |  | PiH1004-VH-Mutation8-VL (antibody, human IgG1, kappa, V domains shown, improved antibody from PiH1004) VH: QVQLVQSGAEVKKPGASVKVSCKASGYTFTDYNMHWVRQAPGQSLEWIGYLNPNNGATSYNQKFKGRATMTVDKSTSTVYMELSSLRSEDTAVYNCARWDGYVYYYGLDYWGQGTLVTVSS VL: DIQMTQSPSSLSASVGDRVTITCKASDHINNWLAWYQQKPGKVPKLLISGATSLETGVPSRFSGSGSGTDYTLTISSLQPEDVATYYCQQYWSTPYTFGGGTKLEIKR |
|  | 0.455 | 0.883 |  | PiH1003 (antibody, human IgG1, kappa, V domains shown, humanized from 51C10H4; IgG1; also called 51-VH3 + VL3) VH: QVQLVQSGAEVKKPGASVKVSCKASGYTFTDYNMHWVRQAPGQGLEWIGYVNPNNGATSYNQKFKGRATMTVDTSTSTVYMELSSLRSEDTAVYNCARWDGYVYYYGLDYWGQGTLVTVSS VL: DIQMTQSPSSLSASVGDRVTITCKASDHINNWLAWYQQKPGKVPKLLISGATSLETGVPSRFSGSGSGTDYTLTISSLQPEDVATYYCQQYWSTPYTFGGGTKLEIKR |
|  | 0.536 | 0.75 | 1.5 | PiH1006 (antibody, human IgG1, kappa, V domains shown, humanized from 51C10H4; IgG1; also called 51-VH2 + VL4) VH: QVQLVQSGAEVKKPGASVKVSCKASGYTFTDYNMHWVRQAPGQGLEWIGYVNPNNGATSYNQKFKGRVTMTVDTSTSTVYMELSSLRSEDTAVYNCARWDGYVYYYGLDYWGQGTLVTVSS VL: DIQMTQSPSSLSASVGGRVTITCKASDHINNWLAWYQQKPGKVPRLLISGATSLETGVPSRFSGSGSGTDYTLTISSLQPEDVATYYCQQYWSTPYTFGGGTKLEIKR |
|  | 0.488 | 0.631 | 1.76 | PiH1001 (antibody, human IgG1, kappa, V domains shown, humanized from 51C10H4; IgG1; also called 51-VH1 + VL3) VH: QVQLVQSGAEVKKPGASVKVSCKASGYTFTDYNMHWVRQAPGQGLEWIGYVNPNNGATSYNQKFKGRATMTRDTSTSTVYMELSSLRSEDTAVYYCARWDGYVYYYGLDYWGQGTLVTVSS VL: DIQMTQSPSSLSASVGDRVTITCKASDHINNWLAWYQQKPGKVPKLLISGATSLETGVPSRFSGSGSGTDYTLTISSLQPEDVATYYCQQYWSTPYTFGGGTKLEIKR |
|  | 0.447 | 0.455 | 0.886 | PiH1008 (antibody, human IgG1, kappa, V domains shown, humanized from 51C10H4; IgG1; also called 51-VH4 + VL4) VH: QVQLVQSGAEVKKPGASVKVSCKASGYTFTDYNMHWVRQAPGQSLEWIGYVNPNNGATSYNQKFKGRATMTVDKSTSTVYMELSSLRSEDTAVYNCARWDGYVYYYGLDYWGQGTLVTVSS VL: DIQMTQSPSSLSASVGGRVTITCKASDHINNWLAWYQQKPGKVPRLLISGATSLETGVPSRFSGSGSGTDYTLTISSLQPEDVATYYCQQYWSTPYTFGGGTKLEIKR |
|  | 0.635 | 0.754 |  | PiH1002 (antibody, human IgG1, kappa, V domains shown, humanized from 51C10H4; IgG1; also called 51-VH2 + VL3) VH: QVQLVQSGAEVKKPGASVKVSCKASGYTFTDYNMHWVRQAPGQGLEWIGYVNPNNGATSYNQKFKGRVTMTVDTSTSTVYMELSSLRSEDTAVYNCARWDGYVYYYGLDYWGQGTLVTVSS VL: DIQMTQSPSSLSASVGDRVTITCKASDHINNWLAWYQQKPGKVPKLLISGATSLETGVPSRFSGSGSGTDYTLTISSLQPEDVATYYCQQYWSTPYTFGGGTKLEIKR |
|  | 0.374 | 0.697 | 2.48 | PiH1007 (antibody, human IgG1, kappa, V domains shown, humanized from 51C10H4; IgG1; also called 51-VH3 + VL4) VH: QVQLVQSGAEVKKPGASVKVSCKASGYTFTDYNMHWVRQAPGQGLEWIGYVNPNNGATSYNQKFKGRATMTVDTSTSTVYMELSSLRSEDTAVYNCARWDGYVYYYGLDYWGQGTLVTVSS VL: DIQMTQSPSSLSASVGGRVTITCKASDHINNWLAWYQQKPGKVPRLLISGATSLETGVPSRFSGSGSGTDYTLTISSLQPEDVATYYCQQYWSTPYTFGGGTKLEIKR |
|  | 0.372 | 0.505 | 2.35 | PiH1005 (antibody, human IgG1, kappa, V domains shown, humanized from 51C10H4; IgG1; also called 51-VH1 + VL4) VH: QVQLVQSGAEVKKPGASVKVSCKASGYTFTDYNMHWVRQAPGQGLEWIGYVNPNNGATSYNQKFKGRATMTRDTSTSTVYMELSSLRSEDTAVYYCARWDGYVYYYGLDYWGQGTLVTVSS VL: DIQMTQSPSSLSASVGGRVTITCKASDHINNWLAWYQQKPGKVPRLLISGATSLETGVPSRFSGSGSGTDYTLTISSLQPEDVATYYCQQYWSTPYTFGGGTKLEIKR |
